Source: the supplement of paper PMC10724198
± gives the standard deviation of the averaged measurements.

Legend:
Saccharomyces cerevisiae [1] = experiment: protein stability index of tFT-peptide fusion (C-terminal peptide) (PSI (0-1 scale)); higher = more stable (slower turnover)
Method: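 MPS profiling in S. cerevisiae of the tFT-X12 degron library: putative degron peptides plus stable controls, 12 aa, fused to the C-terminus of a sfGFP-mCherry timer. Cells are FACS-sorted into 8 mCherry/sfGFP bins and deep-sequenced. PSI runs from 0 (unstable) to 1 (stable). Backgrounds are wild type, das1Δ and doa10Δ at 30 °C, and wild type, das1Δ, cdc34-1 and cdc53-1 at 37 °C; 2-3 technical replicates each.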

Saccharomyces cerevisiae [2] = experiment: as above; conditions: genetic background: wild type; temperature: 30 C
[3] = genetic background: cdc34-1, temperature: 37 C
[4] = genetic background: cdc53-1, temperature: 37 C
[5] = genetic background: das1 deletion, temperature: 30 C
[6] = genetic background: das1 deletion, temperature: 37 C
[7] = genetic background: doa10 deletion, temperature: 30 C
[8] = genetic background: wild type, temperature: 30 C
[9] = genetic background: wild type, temperature: 37 C
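Also: PSI is a weighted mean of sequencing reads over stability bins, variants kept only with over 10 reads, mCherry proximal and sfGFP distal, peptide attached via GGGS linker.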

Sequence | protein stability index (Saccharomyces cerevisiae [1]; [3]) | protein stability index (Saccharomyces cerevisiae [1]; [4]) | protein stability index (Saccharomyces cerevisiae [1]; [5]) | protein stability index (Saccharomyces cerevisiae [1]; [6]) | protein stability index (Saccharomyces cerevisiae [1]; [7]) | protein stability index (Saccharomyces cerevisiae [1]; [8]) | protein stability index (Saccharomyces cerevisiae [1]; [9]) | protein stability index (Saccharomyces cerevisiae [2])
TLKRCFRWCRTT | 0.492 ± 0.095 | 0.71 ± 0.05 | 0.672 ± 0.018 | 0.699 ± 0.0095 | 0.105 ± 0.0068 | 0.11 ± 0.011 | 0.157 ± 0.031 | 0.176 ± 0.0047
VFVMRDGFLRKV | 0.63323 ± 0.00049 | 0.7055 ± 0.004 | 0.636 ± 0.022 | 0.748 ± 0.025 | 0.301 ± 0.013 | 0.341 ± 0.015 | 0.4507 ± 0.0016 | 0.374 ± 0.044
GGIVLLVRVCGP | 0.55 ± 0.016 | 0.636 ± 0.0091 | 0.436 ± 0.019 | 0.6149 ± 0.0012 | 0.389 ± 0.0083 | 0.422 ± 0.018 | 0.601 ± 0.025 | 0.46 ± 0.011
FYLFPSLPLLLL | 0.424 ± 0.018 | 0.432 ± 0.022 | 0.422 ± 0.018 | 0.544 ± 0.03 | 0.477 ± 0.023 | 0.339 ± 0.03 | 0.46 ± 0.0072 | 0.452 ± 0.044
VSGITLPFLMFH | 0.287 ± 0.055 | 0.242 ± 0.034 | 0.348 ± 0.022 | 0.458 ± 0.012 | 0.635 ± 0.0033 | 0.329 ± 0.063 | 0.426 ± 0.0043 | –
YVLLDFFFFFLV | 0.216 ± 0.044 | 0.329 ± 0.029 | 0.24 ± 0.017 | 0.356 ± 0.043 | 0.211 ± 0.0032 | 0.182 ± 0.06 | 0.255 ± 0.032 | –
SVPCWVFLFCLA | 0.349 ± 0.01 | 0.416 ± 0.028 | 0.281 ± 0.03 | 0.462 ± 0.02 | 0.184 ± 0.016 | 0.227 ± 0.025 | 0.4033 ± 0.0033 | –
ALRLPPPPFSLY | 0.677 ± 0.045 | 0.757 ± 0.025 | 0.561 ± 0.05 | 0.72 ± 0.035 | 0.174 ± 0.0065 | 0.237 ± 0.036 | 0.461 ± 0.023 | –
VWWWGGVGWLMV | 0.571 ± 0.047 | 0.601 ± 0.026 | 0.52 ± 0.01 | 0.625 ± 0.025 | 0.386 ± 0.015 | 0.412 ± 0.019 | 0.544 ± 0.012 | –
RKKIRTYINENV | 0.686 ± 0.079 | 0.699 ± 0.038 | 0.612 ± 0.018 | 0.766 ± 0.05 | 0.271 ± 0.018 | 0.334 ± 0.04 | 0.568 ± 0.015 | –
GFLGMFFFWFAL | 0.588 ± 0.0078 | 0.648 ± 0.05 | 0.4628 ± 0.0043 | 0.635 ± 0.011 | 0.461 ± 0.012 | 0.473 ± 0.022 | 0.579 ± 0.018 | –
TWGGGRVSLGGG | 0.316 ± 0.038 | 0.4048 ± 0.0019 | 0.361 ± 0.013 | 0.4176 ± 0.0019 | 0.363 ± 0.01 | 0.364 ± 0.017 | 0.407 ± 0.028 | –
APPSFPPLLLLS | 0.664 ± 0.028 | 0.697 ± 0.038 | 0.6054 ± 0.002 | 0.71 ± 0.016 | 0.254 ± 0.018 | 0.286 ± 0.017 | 0.499 ± 0.034 | –
VSGSFRVCFRVW | 0.612 ± 0.048 | 0.629 ± 0.0076 | 0.521 ± 0.032 | 0.608 ± 0.015 | 0.538 ± 0.024 | 0.517 ± 0.012 | 0.5981 ± 0.004 | –
LSPRPPAPYYSP | 0.657 ± 0.067 | 0.733 ± 0.0089 | 0.662 ± 0.041 | 0.725 ± 0.014 | 0.676 ± 0.03 | 0.662 ± 0.028 | 0.7271 ± 0.0069 | –
